Experimental data reported in patent publication US20160271244A1.
Several values for one entry are separate records, joined by “and”; a condition that tells them apart may be missing. Equal values may be shown once.

Columns and labels:
[1] = biological target: JRFL APA
[2] = biological target: JRFL APA DEG

Substance: 4E10 (antibody)
- Kd [1]: 1380 nM
- koff [1]: 0.001 s⁻¹
- kon [1]: 720 M⁻¹ s⁻¹
- Kd [2]: 140 nM and 150 nM and 180 nM
- koff [2]: 0.001 s⁻¹
- kon [2]: 6800 M⁻¹ s⁻¹ and 6600 M⁻¹ s⁻¹ and 5500 M⁻¹ s⁻¹
